Experimental data reported in article PMC8085772 (The Journal of Cell Biology, 2021).

B1: FLAG-His-tagged full-length CRT_(Del52), purified (natural protein, human)
chain: EPAVYFKEQFLDGDGWTSRWIESKHKSDFGKFVLSSGKFYGDEEKDKGLQTSQDARFYALSASFEPFSNKGQTLVVQFTVKHEQNIDCGGGYVKLFPNSLDQTDMHGDSEYNIMFGPDICGPGTKKVHVIFNYKGKNVLINKDIRCKDDEFTHLYTLIVRPDNTYEVKIDNSQVESGSLEDDWDFLPPKKIKDPDASKPEDWDERAKIDDPTDSKPEDWDKPEHIPDPDAKKPEDWDEEMDGEWEPPVIQNPEYKGEWKPRQIDNPDYKGTWIHPEIDNPEYSPDPSIYAYDNFGVLGLDLWQVKSGTIFDNFLITNDEAYAEEFGNETWGVTKAAEKQMKDKQDEEQRTRRMMRTKMRMRRMRRTRRKMRRKMSPARPRTSCREACLQGWTEA
B2: his-GB1-tagged C-domain of CRT_(Del52) (domain or fragment, human)
chain: MKDKQDEEQRTRRMMRTKMRMRRMRRTRRKMRRKMSPARPRTSCREACLQGWTEA

Assays:
[1] = target: the molecule itself; experiment: non-reducing SDS-PAGE with Coomassie staining + mass spectrometry of the bands
[2] = target: the molecule itself; experiment: non-reducing SDS-PAGE with immunoblot

Protein | stoichiometry N [1] | stoichiometry N [2]
B1 | 2 | 
B2 |  | 2
